Experiments:
human LAG-3 = target: T1, human LAG-3 (human, UniProt P18627 23-450, limits assumed); experiment: Fab phage display selection; periplasmic extracts screened by ELISA or flow cytometry
T1 construct: Selections used human LAG-3-Fc, human LAG-3-6His, a 30 aa LAG-3 peptide and/or cells with cynomolgus LAG-3; also called CD223
T1 sequence (looked up): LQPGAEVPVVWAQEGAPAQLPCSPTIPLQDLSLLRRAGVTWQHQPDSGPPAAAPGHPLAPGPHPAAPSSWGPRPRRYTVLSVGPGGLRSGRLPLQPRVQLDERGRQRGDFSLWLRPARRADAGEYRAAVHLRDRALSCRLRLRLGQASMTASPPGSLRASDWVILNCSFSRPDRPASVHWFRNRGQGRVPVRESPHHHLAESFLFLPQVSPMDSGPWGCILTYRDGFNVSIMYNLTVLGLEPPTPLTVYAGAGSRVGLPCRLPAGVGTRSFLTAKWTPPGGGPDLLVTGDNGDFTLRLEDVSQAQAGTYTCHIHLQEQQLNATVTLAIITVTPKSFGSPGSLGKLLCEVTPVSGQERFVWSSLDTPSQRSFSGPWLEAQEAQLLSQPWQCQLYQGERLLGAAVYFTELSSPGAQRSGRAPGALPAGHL
Text: Anti-LAG-3 antibodies were identified by generation and selection of an immunized Fab phage display library. […] Per mouse, a Fab library was then generated by random-primed cDNA using total RNA as a template to amplify variable regions from mouse antibody genes. Heavy and kappa chain amplicons were combined and cloned into phagemid vectors. […] The 30 amino acid human LAG-3 peptide is a biotinylated peptide comprising the amino acid sequence of […] (SEQ ID NO: 199). Periplasmic extracts of selected Fab clones were then screened by ELISA or flow cytometry. Antibody sequencing and off-rate analysis were then performed on anti-LAG-3 Fabs.

[1] = target: T2, human LAG-3 expressed on cells (human, UniProt P18627 23-525); experiment: flow cytometry, Fab periplasmic extract on Jurkat cells expressing human LAG-3 (FIGS. 1A-1C)
T2 construct: whole, on cells; also called CD223
T2 sequence (looked up): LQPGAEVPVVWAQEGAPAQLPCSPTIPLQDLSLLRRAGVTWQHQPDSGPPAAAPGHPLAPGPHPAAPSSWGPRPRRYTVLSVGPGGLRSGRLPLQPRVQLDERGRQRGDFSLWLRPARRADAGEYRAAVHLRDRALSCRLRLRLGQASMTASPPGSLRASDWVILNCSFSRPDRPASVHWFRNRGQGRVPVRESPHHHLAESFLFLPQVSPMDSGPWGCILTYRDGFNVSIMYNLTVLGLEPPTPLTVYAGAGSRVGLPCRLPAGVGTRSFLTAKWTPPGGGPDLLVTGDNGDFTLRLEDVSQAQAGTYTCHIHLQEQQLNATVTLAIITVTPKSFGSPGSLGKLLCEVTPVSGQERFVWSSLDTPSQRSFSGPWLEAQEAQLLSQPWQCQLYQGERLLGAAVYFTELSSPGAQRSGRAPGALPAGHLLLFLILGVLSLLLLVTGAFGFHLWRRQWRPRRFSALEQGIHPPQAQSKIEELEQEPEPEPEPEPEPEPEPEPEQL
Procedure: The anti-LAG-3 Fabs from periplasmic extracts were tested for binding to LAG-3-expressing cells using flow cytometry. Briefly, wild type and human LAG-3-expressing Jurkat cells were plated at 2×10⁵ cells/well in sample buffer (PBS (Gibco, Cat #10010-015)+0.5% FBS (Gibco, Cat #10270-106)) in 96-well U-bottom plates (Sarstedt). 22 μl of anti-LAG-3 Fab periplasmic extract and 83 μl of diluted anti-c-myc antibody (Gentaur, Clone #9E10, Cat #04-cmyc-9E10) were incubated for 30 minutes at room temperature. 100 μl of the periplasmic extract/anti-c-myc mixture was added to cells and then incubated for one hour on ice. Cells were washed three times and then incubated with a goat anti-mouse APC (BD Biosciences, Cat #550826) for 30 minutes on ice. Cells were washed three times and then analyzed with a FACS machine (BD Accuri6).

B1: P13G05 Fab (Fab, V domains shown)
VH: QVQLQQSGAELVKPGASVELSCTASGFNIRDTYMYWVKQRPEQGLEWIGRIDPANGNTKFDPKFQDRATMTADTSSNTAYLQLSSLTSEDTAVYYCTTYFYRYDVGGFDYWGQGTTLTVS
VL: EIVLTQSPALMAASPGEKVTITCSVSSSISSSNLHWYQQKSGTSPKLWIYGTSNLASGVPVRFSGSGSGTSYSLTISSMEAEDAATYYCQQWSSYPFTFGSGTKLEIK
notes: Murine Fab, periplasmic extract
- binding result (human LAG-3): binds
- binding result [1]: binds

B2: P13C10 Fab (Fab, V domains shown)
VH: QVQLQQSGAELVKPGASVELSCTASGFNIRDTYMYWVKQRPEQGLEWIGRIDPANGNTKFDPKFQDRATMTADTSSNTAYLQLSSLTSEDTAVYYCTTYFYRYDVGGFDYWGQGTTLTVS
VL: ENVLTQSPALMAASPGEKVTITCSVSSSISSSNLHWFQQKSGTSPKLWIYGTSNLASGVPVRFSGSGSGTSYSLTISSMEAEDAATYYCQQWSSYPFTFGSGTKLEIK
notes: as for B1
- binding result (human LAG-3): binds
- binding result [1]: binds

B3: P13B01 Fab (Fab, V domains shown)
VH: EVQLQQSGAELVKPGASVKLSCTASGFNIKDTYIYWVKQRPERGLEWIGRIDPANGNTKFDPKFQGTATITADTSSNTAYLQLSSLTSEDTAVYYCTTYFYRYDVGGFDYWGQGTTLTVS
VL: ENVLTQSPALMAASPGEKVTITCSVSSSISSSNLHWYQQKSGTSPKLWIYGTSNLASGVPVRFSGSGSGTSYSLTISSMEAEDAATYYCQQWSSYPFTFGSGTKLEIK
notes: as for B1
- binding result (human LAG-3): binds
- binding result [1]: binds

B4: P15C02 Fab (Fab, V domains shown)
VH: QVQLQQSGAELVKPGASVELSCTASGFNIRDTYMYWVKQRPEQGLEWIGRIDPANGNTKFDPKFQDRATMTADTSSNTAYLQLSSLTSEDTAVYYCTTYFYRYDVGGFDYWGQGTTLTVS
VL: DVVMTQTPALMAASPGEKVTITCSVSSSISSSNLHWYQQKSGTSPKLWIYGTSNLASGVPVRFSGSGSGTSYSLTISSMEAEDAATYYCQQWSSYPFTFGSGTKLEIK
notes: as for B1
- binding result (human LAG-3): binds
- binding result [1]: binds

B5: P14F01 Fab (Fab, V domains shown)
VH: QVQLQQSGAELVKPGASVELSCTASGFNIRDTYMYWVKQRPEQGLEWIGRIDPANGNTKFDPKFQDRATMTADTSSNTAYLQLSSLTSEDTAVYYCTTYFYRYDVGGFDYWGQGTTLTVS
VL: ENVLTQSPALMAASPGEKVTITCSVSSSISSSNLHWYQQKSGTSPKLWIYGTSNLASGVPVRFSGSGSGTSYSLTISSMEAEDAATYYCQQWSTYPFTFGSGTKLEIK
notes: as for B1
- binding result (human LAG-3): binds
- binding result [1]: binds

B6: P13D05 Fab (Fab, V domains shown)
VH: QVQLQQPGAELVKPGASVELSCTASGFNIRDTYMYWVKQRPEQGLGWIGRIDPANGNTKFDPKFQDRATMTADTSSNTAYLQLSSLTSEDTAVYYCTTYFYRYDVGGFDYWGQGTTLTVS
VL: EIVLTQSPALMAASPGEKVTITCSVSSSISSSNLHWFRQKSGTSPKLWIYGTSNLASGVPVRFSGSGSGTSYSLTISSMEAEDAATYYCQQWSSYPFTFGSGTKLEIK
notes: as for B1
- binding result (human LAG-3): binds
- binding result [1]: binds

B7: P14G01 Fab (Fab, V domains shown)
VH: QVQLKESGAELVKPGASVELSCTASGFNIRDTYMYWVKQRPEQGLEWIGRIDPANGNTKFDPKFQDRATMTADTSSNTAYLQLSSLTSEDTAVYYCTTYFYRYDVGGFDYWGQGTTLTVS
VL: DIVLTQSPALMAASPGEKVTITCSVSSSISSSNLHWFQQKSGTSPKLWIYGTSNLASGVPVRFSGSGSGTSYSLTISSMEAEDAATYYCQQWSSYPFTFGSGTKLEIK
notes: as for B1
- binding result (human LAG-3): binds
- binding result [1]: binds

B8: P16D04 Fab (Fab, V domains shown)
VH: QVQLQQSGAELVKPGASVELSCTASGFNIRDTYMYWVKQRPEQGLEWIGRIDPANGNTKFDPKFQDRATMTADTSSNTAYLQLSSLTSEDTAVYYCTTYFYRYDVGGFDYWGQGTTLTVS
VL: ENVLTQSPALMAASPGEKVTITCSVSSSISSSNLHWYQQKSGTSPKLWIYGTSNLASGVPVRFSGSGSGTSYSLTISSMEAEDAATYYCQQWSSYPLTFGAGTKLELK
notes: as for B1
- binding result (human LAG-3): binds
- binding result [1]: binds

B9: P13A04 Fab (Fab, V domains shown)
VH: QVQLQQPGAELVKPGASVELSCTASGFNIRDTYMYWVKQRPEQGLEWIGRIDPANGNTKFDPKFQDRATMTADTSSNTAYLQLSSLTSADTAVYYCTTYFYRYDVGGFDYWGQGTTLTVS
VL: DIVLTQSPALMAASPGEKVTITCSVSSSISSSNLHWYQQKSGTSPKLWIYGTSNLASGVPVRFSGSGSGTSYSLTISNMEAEDAATYYCQQWSSYPFTFGSGTKLEIK
notes: as for B1
- binding result (human LAG-3): binds
- binding result [1]: binds

B10: P13G04 Fab (Fab, V domains shown)
VH: EVKLMESGAELVKPGASAELSCTASGFNIRDTYMYWVKQRPEQGLEWIGRIDPANGNTKFDPKFQDRATMTADTSSNTAYLQLSSLTSEDTAVYYCTTYFYRYDVGGFDYWGQGTTLTVS
VL: ENVLTQSPALMAASPGEKVTITCSVSSSISSSNLHWFQQKSGTSPKLWIYGTSNLASGVPVRFSGSGSGTSYSLTISSMEAEDAATYYCQQWSSYPFTFGSGTKLEIK
notes: as for B1
- binding result (human LAG-3): binds
- binding result [1]: binds

B11: P01A12 Fab (Fab, V domains shown)
VH: EVQLQQSGAELVKPGASVKLSCTASGFNIKDTYMYWVKQRPEQGLDWIGRIDPANGNTKFDPKFQGKATITADTSSNTAYLQLSSLTSEDTAVYYCSTYYYRYDVGGFDYWGQGTTLTVS
VL: DIVLTQSPALMAASPGEKVTITCSVSSSISSSNLHWYQQKSGTSPKLWIYGTSNLASGVPVRFSGSGSGTSYSLTISSMEAEDAATYYCQQWSSYPFTFGSGTKLEIK
notes: as for B1
- binding result (human LAG-3): binds
- binding result [1]: binds

B12: P13G01 Fab (Fab, V domains shown)
VH: EVQLQQSGAELVKPGASVELSCTASGFNIRDTYMYWVKQRPEQGLEWIGRIDPANGNTKFDPKFQDRATMTADTSSNTAYLQLSSLTSEDTAVYYCTTYFYRYDVGGFDYWGQGTTLTVS
VL: QIVLTQSPALMAASPGEKVTITCSVSSSISSSNLHWYQQKSGTSPKLWIYGTSNLASGVPVRFSGSGSGTSYSLTISSMEAEDAATYYCQQWSSYPFTFGSGTKLEIK
notes: as for B1
- binding result (human LAG-3): binds
- binding result [1]: binds

B13: P13C06 Fab (Fab, V domains shown)
VH: QVQMKQSGAELVKPGASVELSCTASGFNITDTYMYWVKQRPEQGLEWIGRIDPANGNTKFDPKFQDRATMTADTSSNTAYLQLSSLTSEDTAVYYCTTYFDKYDVGGCDYWGQGTTLTVS
VL: EIVLTQSPALMAASPGEKVTITCSVSSSISSSNLYWFQHKSGTSPKLWIYGTSNLASGVPVRFSGSGSGTSYSLTISSMDAENAATYYCQQWRSYPFTFGSGTKLEIK
notes: as for B1
- binding result (human LAG-3): binds
- binding result [1]: binds

B14: P15G05 Fab (Fab, V domains shown)
VH: EVQLQQSGAELVKPGASVELSCTASGFNIRDTYMYWVKQRPEQGLEWIGRIDPANGNTKFDPKFQDRATMTADTSSNTAYLQLSSLTSEDTAVYYCTTYFYRYDVGGFDYWGQGTTLTVS
VL: EIVLTQSPALMAASPGEKVTITCSVSSSISSSNLHWYQQKSGTSPKLWIYGTSNLASGVPVRFSGSGSGTSYSLTISSMEAEDAATYYCQQWSSYPLTFGAGTKLELK
notes: as for B1
- binding result (human LAG-3): binds
- binding result [1]: binds

B15: P13F06 Fab (Fab, V domains shown)
VH: QVQLQQSGAELVKPGASVELSCTASGFNIRDTYMYWVKQRPEQGLEWIGRIDPANGNTKFDPKFQDRATMTADTSSNTAYLQLSSLTSEDTAVYYCTTYFYRYDVGGFDYWGQGTTLTVS
VL: EILLTQSPALMAASPGEKVTITCSVSSSISSSNLHWYQQKSGTSPKLWIYGTSNLASGVPVRFSGSGSGTSYSLTISSMEAEDAATYYCQQWSSYPFTFGSGTKLEIK
notes: as for B1
- binding result (human LAG-3): binds
- binding result [1]: binds
